T1: human CTLA4 protein (human, UniProt P16410 37-162, limits assumed)
T1 construct: bought protein coated on the ELISA plate; also called human CTLA4 antigen
T1 sequence (looked up): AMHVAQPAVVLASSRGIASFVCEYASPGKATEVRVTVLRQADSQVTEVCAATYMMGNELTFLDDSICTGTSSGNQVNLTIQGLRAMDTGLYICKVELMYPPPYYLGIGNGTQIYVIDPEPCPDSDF

B1: Abs-247 (other)
heavy: VIHVTKEVKEVATLSCGHNVSVEELAQTRIYWQKEKKMVLTMMSGDANIWPEYKNRTIFDITNNLSIVYLELRPSDEGTYECLVLKYEKDAFKREHLAEVTLSVKADGGGGSGGGGSGGGGSGGGGSGEVQLLESGGGLVQPGGSLRLSCAASGFTFSSYAMSWVRQAPGKGLEWVSGISGSGGFTYYADSVKGRFTISRDNSKNTLYLQMNSLRAEDTAVYYCAKPPRGYNYGPFDYWGQGTLVTVSSASTKGPSVFPLAPCSRSTSESTAALGCLVKDYFPEPVTVSWNSGALTSGVHTFPAVLQSSGLYSLSSVVTVPSSSLGTKTYTCNVDHKPSNTKVDKRVESKYGPPCPPCPAPEFLGGPSVFLFPPKPKDTLMISRTPEVTCVVVDVSQEDPEVQFNWYVDGVEVHNAKTKPREEQFNSTYRVVSVLAVLHQDWLNGKEYKCKVSNKGLPSSIEKTISKAKGQPREPQVYTLPPSQEEMTKNQVSLTCLVKGFYPSDIAVAWESNGQPENNYKTTPPVLDSDGSFFLYSRLTVDKSRWQEGNVFSCSVMHEALHAHYTQKSLSLSLGK
light: SYVLTQPPSVSVAPGQTARITCGGNNIGSKSVHWYQQKPGQAPVLVVYDDSDRPSGIPERFSGSNSGNTATLTISRVEAGDEADYYCQVWDSSSDHVVFGGGTKLTVLGQPKAAPSVTLFPPSSEELQANKATLVCLISDFYPGAVTVAWKADSSPVKAGVETTTPSKQSNNKYAASSYLSLTPEQWKSHRSYSCQVTHEGSTVEKTVAPTECS
notes: the paragraph that names the antibody is followed; also called CD80 IgV mutant M47A/I69Y/A71E/V83L-sugemalimab fusion
B2: Abs-250 (other)
heavy: B1 heavy with Y69W, L83V
light: B1 light
notes: the paragraph that names the antibody is followed; also called CD80 IgV mutant M47A/I69W/A71E-sugemalimab fusion
B3: Abs-252 (other)
heavy: B1 heavy with A47M, Y69W
light: B1 light
notes: the paragraph that names the antibody is followed; also called CD80 IgV mutant I69W/A71E/V83L-sugemalimab fusion
B4: Abs-249 (other)
heavy: B1 heavy with L83V
light: B1 light
notes: the paragraph that names the antibody is followed; also called CD80 IgV mutant M47A/I69Y/A71E-sugemalimab fusion
B5: Abs-273 (other)
heavy: B1 heavy with A47K
light: B1 light
notes: CD80 IgV mutant fused to the N-terminus of the sugemalimab heavy chain; also called CD80 IgV mutant M47K/I69Y/A71E/V83L-sugemalimab fusion
B6: Abs-253 (other)
heavy: B1 heavy with A47M, L83V
light: B1 light
notes: the paragraph that names the antibody is followed; also called CD80 IgV mutant I69Y/A71E-sugemalimab fusion
B7: Abs-270 (other)
heavy: B1 heavy with T13K, M42T, A47M, Y69I, L83V
light: B1 light
notes: CD80 IgV mutant fused to the N-terminus of the sugemalimab heavy chain; also called CD80 IgV mutant T13K/M42T/A71E-sugemalimab fusion
B8: Abs-263 (other)
heavy: B1 heavy with A47M, Y69L
light: B1 light
notes: the paragraph that names the antibody is followed; also called CD80 IgV mutant I69L/A71E/V83L-sugemalimab fusion
B9: Abs-259 (other)
heavy: B1 heavy with A26M, A47M, Y69I, L83V, L85N
light: B1 light
notes: the paragraph that names the antibody is followed; also called CD80 IgV mutant A26M/A71E/L85N-sugemalimab fusion
B10: Abs-261 (other)
heavy: B1 heavy with A26C, A47M, Y69I, L83V, L85D
light: B1 light
notes: the paragraph that names the antibody is followed; also called CD80 IgV mutant A26C/A71E/L85D-sugemalimab fusion
B11: Abs-262 (other)
heavy: B1 heavy with A26C, A47M, Y69I, L83V, L85N
light: B1 light
notes: the paragraph that names the antibody is followed; also called CD80 IgV mutant A26C/A71E/L85N-sugemalimab fusion
B12: Abs-258 (other)
heavy: B1 heavy with H18W, A26C, A47M, Y69I, L83V, L85D
light: B1 light
notes: the paragraph that names the antibody is followed; also called CD80 IgV mutant H18W/A26C/A71E/L85D-sugemalimab fusion
B13: Abs-271 (other)
heavy: B1 heavy with A47H
light: B1 light
notes: CD80 IgV mutant fused to the N-terminus of the sugemalimab heavy chain; also called CD80 IgV mutant M47H/I69Y/A71E/V83L-sugemalimab fusion
B14: Abs-248 (other)
heavy: B1 heavy with Y69W
light: B1 light
notes: the paragraph that names the antibody is followed; also called CD80 IgV mutant M47A/I69W/A71E/V83L-sugemalimab fusion
B15: Abs-266 (other)
heavy: B1 heavy with T13K, M42L, A47Q, Y69I, L83V
light: B1 light
notes: the paragraph that names the antibody is followed; also called CD80 IgV mutant T13K/M42L/M47Q/A71E-sugemalimab fusion
B16: Abs-265 (other)
heavy: B1 heavy with T13K, M42L, A47H, Y69I, L83V
light: B1 light
notes: the paragraph that names the antibody is followed; also called CD80 IgV mutant T13K/M42L/M47H/A71E-sugemalimab fusion
B17: Abs-267 (other)
heavy: B1 heavy with T13K, M42L, A47M, Y69I, L83V
light: B1 light
notes: the paragraph that names the antibody is followed; also called CD80 IgV mutant T13K/M42L/A71E-sugemalimab fusion
B18: Abs-254 (other)
heavy: B1 heavy with A47M, Y69W, L83V
light: B1 light
notes: the paragraph that names the antibody is followed; also called CD80 IgV mutant I69W/A71E-sugemalimab fusion
B19: Abs-272 (other)
heavy: B1 heavy with A47Q
light: B1 light
notes: CD80 IgV mutant fused to the N-terminus of the sugemalimab heavy chain; also called CD80 IgV mutant M47Q/I69Y/A71E/V83L-sugemalimab fusion
B20: Abs-255 (other)
heavy: B1 heavy with H18W, A26M, A47M, Y69I, L83V, L85N
light: B1 light
notes: the paragraph that names the antibody is followed; also called CD80 IgV mutant H18W/A26M/A71E/L85N-sugemalimab fusion
B21: Abs-268 (other)
heavy: B1 heavy with T13K, M42T, A47H, Y69I, L83V
light: B1 light
notes: the paragraph that names the antibody is followed; also called CD80 IgV mutant T13K/M42T/M47H/A71E-sugemalimab fusion
B22: Abs-251 (other)
heavy: B1 heavy with A47M
light: B1 light
notes: the paragraph that names the antibody is followed; also called CD80 IgV mutant I69Y/A71E/V83L-sugemalimab fusion

Positions count from the first letter of the chain named. Names and notes keep the numbering of the source.

Usually EC50 stands for the concentration giving half of the maximal effect.

The target in one test is T2, human CD28 protein (human, UniProt P10747 19-152).
T2 construct: bought protein coated on the ELISA plate; also called human CD28 antigen
T2 sequence (P10747 19-152 limits assumed): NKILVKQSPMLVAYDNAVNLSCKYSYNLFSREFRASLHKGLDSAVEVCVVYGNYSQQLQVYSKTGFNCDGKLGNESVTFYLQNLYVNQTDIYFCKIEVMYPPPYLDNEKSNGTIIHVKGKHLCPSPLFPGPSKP
In words: ELISA, plate-coated human CD28. Set-up: binding strength @ 100nM: reference not given here. (In general: In an ELISA, binding on a coated surface is turned into a signal by an enzyme label.)
Regarding B1, the binding result is on record as “no binding”.

Take B2: the binding result is “no binding”.

For the molecule B3, the binding result is on record as “no binding”.

For the molecule B4, the binding result was “no binding”.

B5: the binding result was “no binding”.

In the case of B6, the binding result is on record as “no binding”.

For B7, the binding result is “no binding”.

For B8, the concentration giving a half-maximal response (EC50) turned out to be 26.1 nM and the “binding strength @ 100nM” value came out at 333%.

Consider B9, for which the binding result is recorded as “no binding”.

Consider B10, for which the binding result is recorded as “no binding”.

B11: the binding result is “no binding”.

Turning to B12, the binding result was “no binding”.

Regarding B13, the binding result is “no binding”.

Consider B14, for which the binding result is recorded as “no binding”.

As for B15, the binding result is listed as “no binding”.

In the case of B16, the binding result was “no binding”.

Regarding B17, the binding result is on record as “no binding”.

On to B18, for which the binding result is “no binding”.

B19: the binding result was “no binding”.

Turning to B20, the binding result was “no binding”.

With B21, the binding result was “no binding”.

In the case of B22, the binding result is “no binding”.

A further test has as its target T1, human CTLA4 protein. The test is described as follows: ELISA, plate-coated human CTLA4.
Take B1: the binding result is “no binding”.

With B2, the binding result is given as “no binding”.

For B3, the binding result is listed as “no binding”.

Take B4: the binding result is on record as “no binding”.

Consider B5, for which the binding result is on record as “no binding”.

As for B6, the binding result was “no binding”.

For the molecule B7, the binding result is listed as “no binding”.

B8: the binding result was “no binding”.

Turning to B9, the binding result is recorded as “no binding”.

On to B10, for which the binding result is recorded as “no binding”.

As for B11, the binding result was “no binding”.

For the molecule B12, the binding result is “no binding”.

On to B13, for which the binding result was “no binding”.

Regarding B14, the binding result was “no binding”.

Consider B15, for which the binding result is given as “no binding”.

As to B16, the binding result is “no binding”.

As for B17, the concentration giving a half-maximal response (EC50) turned out to be 13.7 nM and the “binding strength @ 20nM” value was 1920%.

Take B18: the binding result is reported as “no binding”.

Regarding B19, the binding result is given as “no binding”.

As for B20, the binding result is reported as “no binding”.

On to B21, for which the binding result is recorded as “no binding”.

For the molecule B22, the binding result is listed as “no binding”.

For the origin of these results see patent EP4538286A1 (Adlai Nortye Biopharma Co., Ltd., dated 2025).
